Measurements from US20060122105A1, “Method of improing the growth performance of an animal” (priority 2001, published 2006).

Key:
Type in all cases: in vivo
[1] = Growth performance of pigs treated with IL-1ra or saline at zero, reduced and normal antibiotic medication (Example 2); settings: for total group weight at the end of the weaner phase: FIG. 10
Procedure: Recombinant porcine IL-1ra was expressed in E. coli and purified using a polyhis tag system. IL-1ra was tested for biological activity in a bioassay prior to the start of the experiment.
The experiment was undertaken in a commercial environment where the pigs were weaned at 28 days of age. All injections were 1 ml. There were 16 pigs per treatment, 8 males and 8 females per treatment. The mean weight of treatment groups were similar at the start of the experiment.
A. Saline injection, 1 ml IM neck muscle.
B. 100 ug IL-1ra injection, 1 ml IM neck muscle. Injections were administered twice weekly during the weaner stage, and weekly throughout the grower and finisher stages.
Pigs were weaned and weighed at the commencement of the experiment (D0, W0). Weights were recorded weekly throughout the weaner phase (W0-W6), during the grower phase (W9), at the end of the grower phase (W13), during the finisher phase (W 16) and at the end of the finisher phase prior to slaughter at W19. Blood samples were collected at the start of the experiment and at the end of the weaner phase, grower phase and finisher phase. Haematology and immunological analyses were performed. At slaughter, carcass characteristics including P2 backfat measurements and dressed carcass weight were noted.

[2] = tested on: Brachyspira (Serpulina) hyodysenteriae; assay: Swine dysentery challenge of weaner pigs, prophylactic treatment (Example 4); settings: for reduction in spirochaete culture scores at post-mortem compared to saline: FIG. 25
Procedure: Male pigs with a mean starting weight of 6.5 kg, were allocated to treatment groups consisting of eight pigs. Pigs were housed in group pens, with each pen containing a replicate from each of the treatment groups. One group of 8 pigs was housed in a separate room and left uninfected to act as untreated controls. Pigs were provided with pelleted feed and water ad libitum.
Prior to swine dysentery challenge, pigs were treated with 200 μg recombinant IL-1ra or 1 ml saline via intramuscular injection. Lincocin was delivered as a 2 ml intramuscular injection according to the manufacturer's instructions. Cytokines, antibiotics and challenges were performed at intervals described in the experimental protocol outlined in Table 5. Pigs were infected with Brachyspira hyodysenteriae at day 0, day 1 and day 2, given as an oral bolus of 120 ml of spirochaete culture in log phase of growth, containing approximately 10^8 cells.
Faecal swabs and blood samples were taken from each pig at intervals described in Table 5. Faecal swabs were cultured for the presence of spirochaetes. Blood samples were assayed for immunological parameters as described in Example 3 above. Pigs were weighed at weekly intervals throughout the experiment, which was terminated by euthanasia on days 19 and 20 after the initial challenge. At post-mortem, swabs from areas of the hindgut were cultured for the presence of spirochaetes, and the gross pathological condition of the gastro-intestinal tissue noted.

[3] = tested on: Actinobacillus pleuropneumoniae (App); assay: App challenge of pigs, prophylactic recombinant IL-1ra, plasmid IL-1ra or flunix (Example 5); set-up: improvements in weight gain over saline controls / reduction in weight gain compared to saline controls / reduction in clinical symptoms compared to saline / reduction of pleurisy compared to saline treated controls / reduction in affected lung mass compared to saline treated controls: concentration or dose not given beside the values
Procedure: Male pigs, with a mean starting weight of 52 kg, were allocated to 5 treatment groups as outlined in Table 6. Pigs were housed in group pens, with each pen containing a replicate from each of the treatment groups. The starting weights of each treatment group and each pen were equal prior to the start of the trial. Pigs were provided with pelleted feed and water ad libitum.
Recombinant IL-1ra and saline-were administered as 1 ml doses, given subcutaneously behind the ear. Plasmids were administered in 1 ml doses, given intramuscularly in the hind-leg. Flunix was administered as a 2 ml dose according to the manufacturer's instructions, and delivered intramuscularly in the neck. The timetable of administration is outlined in Table 6 below.
Prior to challenge, pigs were treated with recombinant cytokines, flunix or plasmids as described Table 7. Pigs were anaesthetised and infected intratracheally with 7.5×10^5 pfu App on day 0.
Blood was sampled from pigs by venipuncture at 0, 24 h and 14 days post-challenge. Blood was assayed for immunological parameters as previously described. Pigs were weighed weekly from delivery of plasmids and for 2 weeks after challenge.
At the conclusion of the trial, pigs were euthanased and the lungs removed for post-mortem examination. Lungs were scored for pleurisy from 0-5 (FIGS. 39 and 40) and the degree of pleuropneumonia was determined by weighing affected lung and expressed as a percentage of total lung weight (FIGS. 41 and 42). Pigs treated with flunix and IL-1ra had less pleurisy than the saline controls (FIG. 39).

[4] = tested on: Actinobacillus pleuropneumoniae (App); assay: App challenge of pigs, therapeutic IL-1ra at low and high doses or Excenel (Example 7); settings: for feed consumed: FIG. 52
Procedure: Male pigs with a mean starting weight of 34.6 kg, were allocated to 4 treatment groups of 9 pigs each. Treatments were saline, IL-1ra at 2 μg per kg, IL-1ra at 10 μg per kg and Excenel, the current clinical treatment for App infection. Pigs were housed in pens of 3 pigs, with 3 replicates of each. Pigs were provided with pelleted feed and water ad libitum. The starting weights of each treatment group and each pen were equal prior to the start of the trial.
Pigs were anaesthetised and infected intratracheally with 7.5×10^5 pfu on day 0. Recombinant IL-1ra and saline were administered as 2ml doses, given subcutaneously behind the ear. Excenel was administered to pigs according to the manufacturer's instructions. Pigs were treated with IL-1ra, saline or Excenel at 24 h, 48 h and one week after challenge with App.
Blood was sampled from pigs by venipuncture at 0 h, 24 h, 48 h, 1 week and 2 weeks after infection. Blood was assayed for immunological parameters as previously described. Pigs were weighed the day prior to challenge, and days 6 and 13 after challenge.

[5] = tested on: Actinobacillus pleuropneumoniae (App); assay: App challenge of pigs, prophylactic recombinant IL-1ra, plasmid IL-1ra or flunix (Example 5); settings: day 13 after challenge compared with pre-challenge levels; FIG. 35

B1: IL-1ra: Recombinant porcine IL-1ra expressed in E. coli and purified using a polyhis tag system (protein, UniProt Q29056 26-177, looked up)
Interleukin-1 receptor …: HPLGKRPCRMQAFRIWDVNQKTFYLRNNQLVAGYLQGPNTKLEEKIDVVPVEPHFVFLGIHGGKLCLSCVKSGDEMKLQLDAVNITDLRKNSEQDKRFTFIRSDSGPTTSFESAACPGWFLCTALEADQPVGLTNTPKAAVKVTKFYFQQDQ
modifications: polyhistidine tag
notes: Recombinant porcine IL-1ra expressed in E. coli and purified using a polyhis tag system
In the case of B1, the “weight at the end of the weaner phase” value ([1]; 100 ug IL-1ra, all 3 levels of medication, FIG. 8) is reported as “weighed more than their saline treated counterparts”, the “P2 backfat levels at slaughter” value ([1]; IL-1ra in absence of antibiotics, FIG. 13) is reported as “comparable to those of pigs treated with saline and provided full antibiotic medication” and the “finishing weight, more than saline treated pigs” value ([1]; absence of antibiotic medication, FIG. 12) is reported as 16.7%. The “number of pigs experiencing weight loss or mortality over the weaner period” value ([1]; absence of antibiotics, FIG. 9) was 2 out of 16 pigs, the “total group weight at the end of the weaner phase” value (“total group weight at the end” below) ([1]; full medication) was 451 kg and the “total group weight at the end” value ([1]; no medication) was 369 kg. The “increase in productivity (group weight vs saline)” value (“increase in productivity” for short) ([1]; normal antibiotic administration) was 11.1%, the “increase in productivity” value ([1]; reduced antibiotic administration) was 20.4% and the “total group weight at the end” value ([1]; reduced medication) was 390 kg. For the same molecule, the “weight at the end of the grower phase” value ([1]; regardless of medication level, FIG. 11) was “heavier than all the saline treatment”, the “deleterious effects of continuous administration” value ([1]; twice weekly in weaner stage, weekly in grower and finisher stages) was “did not have any deleterious effects” and the “increase in productivity” value ([1]; zero antibiotic administration) was 26.4%. The “reduction in spirochaete culture scores at post-mortem compared to saline” value (shortened to “reduction in spirochaete culture scores”) ([2]; anterior colon) was 15.8%, the “reduction in spirochaete culture scores” value ([2]; faecal spirochaetes) was 42.1% and the “reduction in spirochaete culture scores” value ([2]; posterior colon) was 47.1%. For the same molecule, the “net reduction in spirochaetes throughout the GIT” value ([2]; vs saline) was 27%, the “faecal condition at post-mortem (clinical signs)” value ([2]; vs saline treated controls, FIG. 26) was “fewer signs of dysentery-affected faeces” and the “production of the pro-inflammatory cytokines TNF, IL-8 and IL-1 (mRNA in peripheral blood)” value ([2]; vs saline treated controls, FIGS. 27, 28 and 29) was “reduce the production”. The “improvements in weight gain over saline controls” value ([3]; 14d App challenge, FIG. 33) was 53.8%, the “daily rate of gain” value ([3]; 14d challenge with App, FIG. 32) was 667 g per day and the “reduction in clinical symptoms compared to saline” value ([3]; FIG. 38) was 72%. The “heavier at the termination of the experiment than saline treated peers” value ([3]; after 2 weeks of challenge) was 4 kg, the “improvement in growth vs saline” value ([3]; after 2 weeks of challenge) was 69% and the “production of IL-6 (mRNA in peripheral blood)” value ([3]; after App challenge, compared with saline treated controls, FIG. 36) was “reduce the production”. For the same molecule, the “growth during the week of challenge” value ([3]; first week after App challenge, FIG. 30) was “positive growth”, the “clinical signs of App disease (mean clinical scores over 30 visits)” value ([3]; first week of challenge, vs saline-treated controls, p<0.05, FIG. 37) was “significantly reduced clinical signs of disease” and the “reduction in affected lung mass compared to saline treated controls” value ([3]; percentage of lung affected by App lesions, FIG. 42) was 73.9%. The “reduction of pleurisy compared to saline treated controls” value ([3]; pleurisy score 0-5 at necropsy, FIG. 40) was 22%, the feed consumed ([4]; IL-1ra at high dose (10 μg per kg)) was 1.8 kg of feed per day and the “weight gained in the second week of challenge” value ([4]; IL-1ra at low dose (2 μg per kg), Excenel per manufacturer's instructions, FIG. 51) was 5.7 kg. The feed consumed ([4]; IL-1ra at low dose (2 μg per kg), Excenel per manufacturer's instructions) was 1.7 kg of feed per day, the “production of IL-8 in the caudal-mediastinal lymph nodes” value ([4]; low dose IL-1ra, Excenel, compared to saline treated controls) was “reduced the production of IL-8” and the “feed conversion ratio (FCR, feed:gain)” value ([4]; low dose IL-1ra, FIG. 53) was 1.6. For the same molecule, the “proliferative responses of lymphocytes in the presence of killed App” value ([4]; low dose IL-1ra, FIG. 54) was “tended to have improved proliferative responses of lymphocytes”, the “production of the pro-inflammatory cytokine IL-8 in lung tissue (mRNA at post-mortem)” value ([4]; low doses, compared to other treatments, FIG. 55) was “reduced the production” and the “levels of TNFα protein in the serum” value [5] was “reduced levels of TNFα”.
